# Where no end group is shown, it is not given here.
# Tests used:
# [1] = molecular target: T1, Anti-PSMA Fab (SEQ ID NOs: 19, 20); test: phage binding ELISA; biotinylated PSMA Fab on neutravidin plates, clonal phage supernatant, anti-M13 HRP detection
# T1 construct: Biotinylated and captured on neutravidin coated plates in the phage ELISA; also called 006 PSMA Fab
# Experimental: (§1) Clonal phage were harvested as crude supernatants and screened via standard ELISAs. […] Prior to the addition of clonal phage. wells were incubated with blocking buffer and PSMA antigen or blocking buffer alone. Without washing or aspirating, clonal phage supernatants were then added to the wells and incubated for a short time. Wells were then washed followed by detection of bound phage using a horse radish conjugated anti-M13 antibody.
# [2] = molecular target: T1, Anti-PSMA Fab (SEQ ID NOs: 19, 20); test: phage binding ELISA; Fab-coated wells pre-incubated with PSMA antigen as competitor, anti-M13 HRP detection
# Experimental: as §1
# [3] = molecular target: T2, Anti-PSMA Fab (SEQ ID NOs: 19, 20); test: phage ELISA on captured PSMA Fab, wells pre-incubated with the competitor PSMA antigen
# T2 construct: Biotinylated PSMA Fab captured on neutravidin coated plates in the phage ELISA; also called 006 PSMA Fab
# Experimental: as §1
# [4] = molecular target: T2, Anti-PSMA Fab (SEQ ID NOs: 19, 20); test: phage ELISA; biotinylated PSMA Fab on neutravidin plate, bound phage detected with anti-M13-HRP;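 further: crude clonal phage supernatants added, without a wash, to wells pretreated with PSMA antigen in blocking buffer or with blocking buffer only, then briefly incubated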
# Experimental: as §1
# [5] = molecular target: T3, Anti-PSMA Fab (SEQ ID NOs: 19, 20); test: phage binding ELISA; biotinylated PSMA Fab on neutravidin plate, clonal phage supernatant, anti-M13 HRP detection;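 further: wells were preincubated with blocking buffer either containing PSMA antigen or without it before crude phage supernatant was added, briefly incubated, then washed prior to detection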
# T3 construct: In the phage ELISA the PSMA Fab was biotinylated and captured on neutravidin coated plates; also called 006 PSMA Fab
# Experimental: as §1
# [6] = molecular target: T3, Anti-PSMA Fab (SEQ ID NOs: 19, 20); test: phage binding ELISA; PSMA Fab on plate pre-incubated with PSMA antigen as competitor, anti-M13 HRP detection;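 further: crude clonal phage supernatants added without washing to wells preincubated with PSMA in blocking buffer, compared with wells receiving blocking buffer only, then bound phage detected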
# Experimental: as §1
Binder,Anti-PSMA Fab signal [1],Anti-PSMA Fab signal in the presence of PSMA [2],Anti-PSMA Fab signal in the presence of PSMA (phage binding ELISA) [3],Anti-PSMA Fab signal (phage binding ELISA) [4],other results
MDHWCTPPWMCEGW (tested as clonal phage supernatant) [Phage-2042],1.79,0.0642,,,
VPKWCTPSWMCEST (tested as clonal phage supernatant) [Phage-2043],1.79,0.0787,,,
"EVKWCTPEWMCAFL (cysteine pairing not given here; also: fused to phage pIII, pIII sequence and linker not given here, tested as clonal phage supernatant) [Phage-2044]",1.79,0.0578,,,
IDKWCIPMWMCEMS (tested as clonal phage supernatant) [Phage-2045],1.79,0.0708,,,
EVHRCIPAWMCTTP (tested as clonal phage supernatant) [Phage-2046],1.79,0.0934,,,
VDHWCTPAWMCDGF (tested as clonal phage supernatant) [Phage-2047],1.78,0.106,,,
"VAKWCTPPWMCAWL (cysteine pairing not given here; also: fused to phage pIII, pIII sequence and linker not given here, tested as clonal phage supernatant) [Phage-2048]",1.78,0.197,,,
VMPWCIPQWMCVGE (tested as clonal phage supernatant) [Phage-2049],1.78,0.0873,,,
EAIWCVPKWMCEGM (tested as clonal phage supernatant) [Phage-2050],1.78,0.0786,,,
VPKWCTPAWMCNWN (tested as clonal phage supernatant) [Phage-2051],1.78,0.12,,,
FPQWCIPIWMCEHT (tested as clonal phage supernatant) [Phage-2052],1.78,0.065,,,
VVHWCIPEWMCERI (tested as clonal phage supernatant) [Phage-2053],1.78,0.098,,,
VDKWCIPQWMCDDQ (tested as clonal phage supernatant) [Phage-2054],1.77,0.116,,,
APKLCIPNWMCVSM (tested as clonal phage supernatant) [Phage-2055],1.77,0.0746,,,
WLNWCTPEWMCNGF (tested as clonal phage supernatant) [Phage-2056],1.77,0.147,,,
VEKWCTPPWMCSLF (tested as crude clonal phage supernatant) [Phage-2057],,,0.1,1.77,
AWKSCIPSWMCEVQ (tested as crude clonal phage supernatant) [Phage-2058],,,0.0942,1.77,
DTMRCVPEWMCTGF (tested as crude clonal phage supernatant) [Phage-2059],,,0.066,1.77,

Binder,Anti-PSMA Fab signal [1],Anti-PSMA Fab signal in the presence of PSMA [2],Anti-PSMA Fab signal in the presence of PSMA (phage binding ELISA) [3],Anti-PSMA Fab signal (phage binding ELISA) [4],other results
EHIWCKPDWMCSGF (tested as crude clonal phage supernatant) [Phage-2060],,,0.0871,1.77,
EMKWCIPAWMCQSH (tested as crude clonal phage supernatant) [Phage-2061],,,0.0858,1.77,
EGKWCTPIWMCQGF (tested as crude clonal phage supernatant) [Phage-2062],,,0.143,1.77,
PIKLCTPSWMCIGF (tested as crude clonal phage supernatant) [Phage-2063],,,0.107,1.77,
YLHSCTPAWMCTGF (tested as crude clonal phage supernatant) [Phage-2064],,,0.0668,1.77,
AAKMCVPWWMCEVM (tested as crude clonal phage supernatant) [Phage-2065],,,0.0753,1.77,
VSIMCKPMWMCSGT (tested as crude clonal phage supernatant) [Phage-2066],,,0.072,1.77,
PVKWCIPSWMCSVD (tested as crude clonal phage supernatant) [Phage-2067],,,0.0738,1.76,
SEKWCIPDWMCQVW (tested as crude clonal phage supernatant) [Phage-2068],,,0.0929,1.76,
YDHWCTPMWMCHGM (tested as crude clonal phage supernatant) [Phage-2069],,,0.0688,1.76,
FEMWCTPSWMCDGF (tested as crude clonal phage supernatant) [Phage-2070],,,0.0932,1.76,
IGPWCIPPWMCDHR (tested as crude clonal phage supernatant) [Phage-2071],,,0.0893,1.76,
"QGNWCKPAWMCSGF (cysteine pairing not given here; also: fused to phage pIII, pIII sequence and linker not given here, Tested as clonal phage supernatant; not shown: pIII filament protein of the bacteriophage to which the peptide is fused for display) [Phage-2072 (peptide-180 library clone, SEQ ID NO: 2388)]",,,,,"Anti-PSMA Fab (SEQ ID NOs: 19, 20) signal [5]: 1.76; Anti-PSMA Fab signal in the presence of PSMA [6]: 0.0983"
"VAKMCIPSWMCAEQ (cysteine pairing not given here; also: fused to phage pIII, pIII sequence and linker not given here, Tested as clonal phage supernatant; not shown: pIII filament protein of the bacteriophage to which the peptide is fused for display) [Phage-2073 (peptide-180 library clone, SEQ ID NO: 2389)]",,,,,"Anti-PSMA Fab (SEQ ID NOs: 19, 20) signal [5]: 1.76; Anti-PSMA Fab signal in the presence of PSMA [6]: 0.0548"
"VGNWCKPAWMCEMM (Tested as clonal phage supernatant; not shown: pIII filament protein of the bacteriophage to which the peptide is fused for display) [Phage-2074 (peptide-180 library clone, SEQ ID NO: 2390)]",,,,,"Anti-PSMA Fab (SEQ ID NOs: 19, 20) signal [5]: 1.76; Anti-PSMA Fab signal in the presence of PSMA [6]: 0.0681"
"ADKWCTPTWMCQWL (Tested as clonal phage supernatant; not shown: pIII filament protein of the bacteriophage to which the peptide is fused for display) [Phage-2075 (peptide-180 library clone, SEQ ID NO: 2391)]",,,,,"Anti-PSMA Fab (SEQ ID NOs: 19, 20) signal [5]: 1.76; Anti-PSMA Fab signal in the presence of PSMA [6]: 0.0745"
"ADKWCIPEWMCEMN (Tested as clonal phage supernatant; not shown: pIII filament protein of the bacteriophage to which the peptide is fused for display) [Phage-2076 (peptide-180 library clone, SEQ ID NO: 2392)]",,,,,"Anti-PSMA Fab (SEQ ID NOs: 19, 20) signal [5]: 1.76; Anti-PSMA Fab signal in the presence of PSMA [6]: 0.0844"

# Reference: US20260242478A1 (published 2026)
